In patent US20210139548A1 (published 2021):
*1 amine or outer side, *2 acyl side, *3 side chain or, on linkers, in order; H or OH if unused. Side-chain parts run from the residue outwards. The star is where a group is joined. C18 diacid = O=C(O)CCCCCCCCCCCCCCCCC(=O)*; γGlu = O=C(O)[C@H](CCC(=O)[*:2])N[*:1]; Isovaleryl = CC(C)CC(=O)*; AEEA = NCCOCCOCC(=O)O

T1: human neuropeptide Y2 receptor (human, UniProt P49146 1-381)
T1 sequence (looked up): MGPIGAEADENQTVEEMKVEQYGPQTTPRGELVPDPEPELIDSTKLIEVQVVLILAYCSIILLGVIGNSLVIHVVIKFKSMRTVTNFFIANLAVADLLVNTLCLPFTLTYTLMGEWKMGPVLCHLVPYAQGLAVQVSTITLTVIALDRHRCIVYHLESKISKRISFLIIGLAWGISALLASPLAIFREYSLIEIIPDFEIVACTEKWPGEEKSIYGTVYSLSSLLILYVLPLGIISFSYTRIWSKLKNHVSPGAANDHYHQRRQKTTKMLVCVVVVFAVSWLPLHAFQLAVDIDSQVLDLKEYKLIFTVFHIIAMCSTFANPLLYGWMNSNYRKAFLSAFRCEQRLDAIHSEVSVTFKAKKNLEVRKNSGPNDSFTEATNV

T2: human NPY1 receptor (human, UniProt P25929 1-384)
T2 sequence (looked up): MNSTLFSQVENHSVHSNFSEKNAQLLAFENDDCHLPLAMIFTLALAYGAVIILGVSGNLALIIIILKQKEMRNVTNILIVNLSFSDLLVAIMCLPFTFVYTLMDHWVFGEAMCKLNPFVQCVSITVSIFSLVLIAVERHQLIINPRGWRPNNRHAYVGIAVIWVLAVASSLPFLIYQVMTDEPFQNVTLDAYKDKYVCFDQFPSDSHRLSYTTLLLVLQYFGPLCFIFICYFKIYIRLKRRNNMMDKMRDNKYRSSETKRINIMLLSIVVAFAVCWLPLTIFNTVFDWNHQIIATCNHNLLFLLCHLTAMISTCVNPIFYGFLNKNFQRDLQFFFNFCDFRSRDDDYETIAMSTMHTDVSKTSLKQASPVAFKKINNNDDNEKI

T3: human NPY5 receptor (human, UniProt Q15761 1-445)
T3 sequence (looked up): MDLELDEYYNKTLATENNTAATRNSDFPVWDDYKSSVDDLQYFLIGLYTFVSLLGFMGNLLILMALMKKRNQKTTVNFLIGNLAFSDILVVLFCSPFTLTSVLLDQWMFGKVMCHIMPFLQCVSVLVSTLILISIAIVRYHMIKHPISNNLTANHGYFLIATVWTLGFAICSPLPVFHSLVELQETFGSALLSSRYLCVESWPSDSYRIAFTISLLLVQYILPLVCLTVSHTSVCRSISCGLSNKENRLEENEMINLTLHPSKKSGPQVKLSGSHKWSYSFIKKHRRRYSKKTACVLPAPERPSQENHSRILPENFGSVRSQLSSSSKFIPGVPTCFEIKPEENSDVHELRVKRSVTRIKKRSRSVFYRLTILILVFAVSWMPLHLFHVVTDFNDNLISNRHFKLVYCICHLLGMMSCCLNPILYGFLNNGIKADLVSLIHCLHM


Assays:
[1] = molecular target: T1, human neuropeptide Y2 receptor; test: cell-based or functional assay
human NPY1 receptor = molecular target: T2, human NPY1 receptor; test: cell-based or functional assay
human NPY4 receptor = human NPY4 receptor (human, UniProt P50391 1-375); test: cell-based or functional assay
Chain of human NPY4 receptor (P50391 whole entry): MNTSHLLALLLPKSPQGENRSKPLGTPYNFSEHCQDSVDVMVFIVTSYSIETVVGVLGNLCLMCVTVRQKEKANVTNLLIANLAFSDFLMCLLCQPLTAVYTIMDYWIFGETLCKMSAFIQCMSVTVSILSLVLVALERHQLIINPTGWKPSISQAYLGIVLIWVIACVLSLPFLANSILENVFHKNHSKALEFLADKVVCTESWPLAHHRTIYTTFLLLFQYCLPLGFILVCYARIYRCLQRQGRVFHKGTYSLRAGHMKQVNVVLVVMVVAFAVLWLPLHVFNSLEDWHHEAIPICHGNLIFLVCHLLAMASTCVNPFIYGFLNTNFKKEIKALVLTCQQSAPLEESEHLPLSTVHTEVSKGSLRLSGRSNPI

human NPY5 receptor = molecular target: T3, human NPY5 receptor; test: cell-based or functional assay
[2] = molecular target: T1, human neuropeptide Y2 receptor; test: radioligand competition (125I-PYY(1-36)), hNPY2R membranes
Method in brief: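 Commercial human Y2 receptor membranes (0.5 μg protein/well) were incubated with peptide for 2 h at room temperature in 50 mM HEPES, 5 mM MgCl₂, 1 mM CaCl₂, pH 7.4, with 0.2% ovalbumin. Bound radioligand was separated on PEI-soaked GF/C filters and counted by scintillation, and IC₅₀ came from nonlinear sigmoidal regression.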

| Binder | EC50 (HTRF cAMP Gi assay) [1] [nM] | EC50 (HTRF cAMP Gi assay) (human NPY1 receptor) [nM] | EC50 (HTRF cAMP Gi assay) (human NPY4 receptor) [nM] | EC50 (HTRF cAMP Gi assay) (human NPY5 receptor) [nM] | Ki [2] [nM] |
| --- | --- | --- | --- | --- | --- |
| Isovaleryl-APEK([AEEA-AEEA-γGlu-C18 diacid])PEEDASPEELQRYYVSLRHYYNWLTRQRY-NH2 (SMILES CC(C)CC(=O)N[C@@H](C)C(=O)N1CCC[C@H]1C(=O)N[C@@H](CCC(=O)O)C(=O)N[C@@H](CCCCNC(=O)COCCOCCNC(=O)COCCOCCNC(=O)CC[C@H](NC(=O)CCCCCCCCCCCCCCCCC(=O)O)C(=O)O)C(=O)N1CCC[C@H]1C(=O)N[C@@H](CCC(=O)O)C(=O)N[C@@H](CCC(=O)O)C(=O)N[C@@H](CC(=O)O)C(=O)N[C@@H](C)C(=O)N[C@@H](CO)C(=O)N1CCC[C@H]1C(=O)N[C@@H](CCC(=O)O)C(=O)N[C@@H](CCC(=O)O)C(=O)N[C@@H](CC(C)C)C(=O)N[C@@H](CCC(N)=O)C(=O)N[C@@H](CCCNC(=N)N)C(=O)N[C@@H](Cc1ccc(O)cc1)C(=O)N[C@@H](Cc1ccc(O)cc1)C(=O)N[C@H](C(=O)N[C@@H](CO)C(=O)N[C@@H](CC(C)C)C(=O)N[C@@H](CCCNC(=N)N)C(=O)N[C@@H](Cc1c[nH]cn1)C(=O)N[C@@H](Cc1ccc(O)cc1)C(=O)N[C@@H](Cc1ccc(O)cc1)C(=O)N[C@@H](CC(N)=O)C(=O)N[C@@H](Cc1c[nH]c2ccccc12)C(=O)N[C@@H](CC(C)C)C(=O)N[C@H](C(=O)N[C@@H](CCCNC(=N)N)C(=O)N[C@@H](CCC(N)=O)C(=O)N[C@@H](CCCNC(=N)N)C(=O)N[C@@H](Cc1ccc(O)cc1)C(N)=O)[C@@H](C)O)C(C)C) [Compound 54] | 0.131 | > 5000 | > 5000 | > 5000 | 0.95 |
| Isovaleryl-APEK([AEEA-AEEA-γGlu-C18 diacid])PEEDASPEEIQQYYVSLRHYYNWLTRQRY-NH2 (SMILES CC[C@H](C)[C@H](NC(=O)[C@H](CCC(=O)O)NC(=O)[C@H](CCC(=O)O)NC(=O)[C@@H]1CCCN1C(=O)[C@H](CO)NC(=O)[C@H](C)NC(=O)[C@H](CC(=O)O)NC(=O)[C@H](CCC(=O)O)NC(=O)[C@H](CCC(=O)O)NC(=O)[C@@H]1CCCN1C(=O)[C@H](CCCCNC(=O)COCCOCCNC(=O)COCCOCCNC(=O)CC[C@H](NC(=O)CCCCCCCCCCCCCCCCC(=O)O)C(=O)O)NC(=O)[C@H](CCC(=O)O)NC(=O)[C@@H]1CCCN1C(=O)[C@H](C)NC(=O)CC(C)C)C(=O)N[C@@H](CCC(N)=O)C(=O)N[C@@H](CCC(N)=O)C(=O)N[C@@H](Cc1ccc(O)cc1)C(=O)N[C@@H](Cc1ccc(O)cc1)C(=O)N[C@H](C(=O)N[C@@H](CO)C(=O)N[C@@H](CC(C)C)C(=O)N[C@@H](CCCNC(=N)N)C(=O)N[C@@H](Cc1c[nH]cn1)C(=O)N[C@@H](Cc1ccc(O)cc1)C(=O)N[C@@H](Cc1ccc(O)cc1)C(=O)N[C@@H](CC(N)=O)C(=O)N[C@@H](Cc1c[nH]c2ccccc12)C(=O)N[C@@H](CC(C)C)C(=O)N[C@H](C(=O)N[C@@H](CCCNC(=N)N)C(=O)N[C@@H](CCC(N)=O)C(=O)N[C@@H](CCCNC(=N)N)C(=O)N[C@@H](Cc1ccc(O)cc1)C(N)=O)[C@@H](C)O)C(C)C) [Compound 11] | 0.334 | > 5000 | > 5000 | > 5000 | 0.74 |
| Isovaleryl-APEK([AEEA-AEEA-γGlu-C18 diacid])PEEDAEPEELQQYYVSLRHYYNWLTRQRY-NH2 (SMILES CC(C)CC(=O)N[C@@H](C)C(=O)N1CCC[C@H]1C(=O)N[C@@H](CCC(=O)O)C(=O)N[C@@H](CCCCNC(=O)COCCOCCNC(=O)COCCOCCNC(=O)CC[C@H](NC(=O)CCCCCCCCCCCCCCCCC(=O)O)C(=O)O)C(=O)N1CCC[C@H]1C(=O)N[C@@H](CCC(=O)O)C(=O)N[C@@H](CCC(=O)O)C(=O)N[C@@H](CC(=O)O)C(=O)N[C@@H](C)C(=O)N[C@@H](CCC(=O)O)C(=O)N1CCC[C@H]1C(=O)N[C@@H](CCC(=O)O)C(=O)N[C@@H](CCC(=O)O)C(=O)N[C@@H](CC(C)C)C(=O)N[C@@H](CCC(N)=O)C(=O)N[C@@H](CCC(N)=O)C(=O)N[C@@H](Cc1ccc(O)cc1)C(=O)N[C@@H](Cc1ccc(O)cc1)C(=O)N[C@H](C(=O)N[C@@H](CO)C(=O)N[C@@H](CC(C)C)C(=O)N[C@@H](CCCNC(=N)N)C(=O)N[C@@H](Cc1c[nH]cn1)C(=O)N[C@@H](Cc1ccc(O)cc1)C(=O)N[C@@H](Cc1ccc(O)cc1)C(=O)N[C@@H](CC(N)=O)C(=O)N[C@@H](Cc1c[nH]c2ccccc12)C(=O)N[C@@H](CC(C)C)C(=O)N[C@H](C(=O)N[C@@H](CCCNC(=N)N)C(=O)N[C@@H](CCC(N)=O)C(=O)N[C@@H](CCCNC(=N)N)C(=O)N[C@@H](Cc1ccc(O)cc1)C(N)=O)[C@@H](C)O)C(C)C) [Compound 18] | 0.167 | > 5000 | > 5000 | > 5000 | 3.71 |
| Isovaleryl-APEK([AEEA-AEEA-γGlu-C18 diacid])PEEEATPEELQRYYVSLRHYYNWLTRQRY-NH2 (SMILES CC(C)CC(=O)N[C@@H](C)C(=O)N1CCC[C@H]1C(=O)N[C@@H](CCC(=O)O)C(=O)N[C@@H](CCCCNC(=O)COCCOCCNC(=O)COCCOCCNC(=O)CC[C@H](NC(=O)CCCCCCCCCCCCCCCCC(=O)O)C(=O)O)C(=O)N1CCC[C@H]1C(=O)N[C@@H](CCC(=O)O)C(=O)N[C@@H](CCC(=O)O)C(=O)N[C@@H](CCC(=O)O)C(=O)N[C@@H](C)C(=O)N[C@H](C(=O)N1CCC[C@H]1C(=O)N[C@@H](CCC(=O)O)C(=O)N[C@@H](CCC(=O)O)C(=O)N[C@@H](CC(C)C)C(=O)N[C@@H](CCC(N)=O)C(=O)N[C@@H](CCCNC(=N)N)C(=O)N[C@@H](Cc1ccc(O)cc1)C(=O)N[C@@H](Cc1ccc(O)cc1)C(=O)N[C@H](C(=O)N[C@@H](CO)C(=O)N[C@@H](CC(C)C)C(=O)N[C@@H](CCCNC(=N)N)C(=O)N[C@@H](Cc1c[nH]cn1)C(=O)N[C@@H](Cc1ccc(O)cc1)C(=O)N[C@@H](Cc1ccc(O)cc1)C(=O)N[C@@H](CC(N)=O)C(=O)N[C@@H](Cc1c[nH]c2ccccc12)C(=O)N[C@@H](CC(C)C)C(=O)N[C@H](C(=O)N[C@@H](CCCNC(=N)N)C(=O)N[C@@H](CCC(N)=O)C(=O)N[C@@H](CCCNC(=N)N)C(=O)N[C@@H](Cc1ccc(O)cc1)C(N)=O)[C@@H](C)O)C(C)C)[C@@H](C)O) [Compound 41] | 0.159 | > 5000 | > 5000 | > 5000 | 3.22 |
| Isovaleryl-APEK([AEEA-AEEA-γGlu-C18 diacid])PEEDATPEEIQRYYVSLRHYYNWLTRQRY-NH2 [Compound 171] |  | > 5000 | > 5000 | > 5000 |  |
